Laboratory results from patent US20190033295A1 (MEDICINAL BIOCONVERGENCE RESEARCH CENTER, published 2019).

Columns and labels:
HSP70 protein [1] = target: T1, HSP70 protein (human, UniProt P0DMV8 1-641, limits assumed); assay: IP of H460 cell lysate with Hsp70 antibody, western blot
T1 construct: Untagged HSP70: endogenous in H460 and 293T cells (co-IP, western blot with HSP70 antibody) and the purified protein fixed on the SPR chip; The construct of the purified protein is not described; also called heat shock protein 70; endogenous HSP70
T1 sequence (P0DMV8 whole entry): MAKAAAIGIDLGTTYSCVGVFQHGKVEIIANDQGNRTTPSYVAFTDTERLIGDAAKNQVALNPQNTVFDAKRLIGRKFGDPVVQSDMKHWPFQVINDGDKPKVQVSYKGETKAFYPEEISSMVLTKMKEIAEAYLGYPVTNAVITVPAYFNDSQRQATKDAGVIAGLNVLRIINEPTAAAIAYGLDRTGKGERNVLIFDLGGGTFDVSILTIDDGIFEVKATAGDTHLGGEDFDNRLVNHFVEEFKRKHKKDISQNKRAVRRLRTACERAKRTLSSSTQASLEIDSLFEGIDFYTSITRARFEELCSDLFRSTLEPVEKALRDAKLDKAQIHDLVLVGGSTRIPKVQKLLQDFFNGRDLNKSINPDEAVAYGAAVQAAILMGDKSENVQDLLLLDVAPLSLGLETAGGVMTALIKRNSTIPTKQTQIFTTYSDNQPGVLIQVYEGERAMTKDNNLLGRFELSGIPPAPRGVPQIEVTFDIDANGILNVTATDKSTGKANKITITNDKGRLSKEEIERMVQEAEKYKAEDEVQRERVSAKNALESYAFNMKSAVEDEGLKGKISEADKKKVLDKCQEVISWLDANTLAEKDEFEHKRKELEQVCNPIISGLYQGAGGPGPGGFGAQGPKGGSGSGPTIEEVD
Method: H460 cells were treated with […] (EGF (Peprotech)) for 30 minutes, and then lysed with IP buffer (50 mM Tris (pH7.4), 100 mM NaCl, 10% Glycerol, 1 mM EDTA, 0.5% TritonX-100, PBS) at 4° C. for 30 minutes. […] Actin (Sigma) means loading control, and WCL means whole cell lysate.

HSP90B1 = target: T2, HSP90B1 (UniProt P14625 22-803); assay: strep-tag column pull-down from 293T lysate, LC-mass spectrometry
T2 construct: Identified by mass spectrometry of tryptic peptides
T2 sequence (P14625 22-803 limits assumed): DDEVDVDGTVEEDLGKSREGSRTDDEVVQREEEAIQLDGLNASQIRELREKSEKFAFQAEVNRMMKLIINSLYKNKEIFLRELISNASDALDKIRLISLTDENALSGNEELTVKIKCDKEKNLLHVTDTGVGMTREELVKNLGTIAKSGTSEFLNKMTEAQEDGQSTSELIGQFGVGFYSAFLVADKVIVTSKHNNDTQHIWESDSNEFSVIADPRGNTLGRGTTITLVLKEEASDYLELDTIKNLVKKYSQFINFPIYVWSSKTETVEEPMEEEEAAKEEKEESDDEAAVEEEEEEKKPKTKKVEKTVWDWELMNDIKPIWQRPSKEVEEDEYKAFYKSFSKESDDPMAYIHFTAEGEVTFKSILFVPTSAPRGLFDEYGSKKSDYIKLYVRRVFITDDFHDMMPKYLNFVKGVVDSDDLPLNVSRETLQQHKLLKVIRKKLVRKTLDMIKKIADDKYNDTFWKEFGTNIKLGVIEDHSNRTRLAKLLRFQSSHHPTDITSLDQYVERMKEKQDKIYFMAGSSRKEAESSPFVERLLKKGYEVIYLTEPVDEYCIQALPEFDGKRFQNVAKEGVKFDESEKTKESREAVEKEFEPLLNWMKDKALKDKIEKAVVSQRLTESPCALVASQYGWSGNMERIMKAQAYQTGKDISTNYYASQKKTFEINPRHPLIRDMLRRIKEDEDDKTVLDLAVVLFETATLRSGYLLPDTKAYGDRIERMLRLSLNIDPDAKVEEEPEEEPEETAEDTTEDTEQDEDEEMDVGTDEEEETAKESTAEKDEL
Method: (§1) Separated proteins were degraded to their peptide levels by in-gel digestion using trypsin (Hyclone), and these peptides were analyzed by LC-mass spectrometry (Thermo) (FIG. 1A).
(§2) Cell lysis was performed by incubating at 4° C. for 30 min with an appropriate amount of lysis buffer (50 mM Tris(pH7.4), 100 mM NaCl, 10% Glycerol, 1 mM EDTA, 0.5% TritonX-100, PBS). And, lysed cell lysate was centrifuged at 13,200 rpm for 15 minutes. After […] the supernatant from the cell lysate, the supernatant was passed through a strep-tag column (thermo). After passing the supernatant, the proteins bound to the column were eluted by using elution buffer, and then the collected proteins were separated by SDS-PAGE.

HSP70 protein [2] = target: T1, HSP70 protein; assay: strep-tag column IP of 293T lysate overexpressing Strep-AIMP2-DX2, western blot
Method: After the cells were lysed in the same manner as described above, IP was performed using a Strep-tag column (GE Helathcare).

GFP-HSP70 = target: T3, GFP-HSP70 (human, UniProt P0DMV8 1-641); assay: confocal microscopy of 293T cells overexpressing both
T3 construct: Overexpressed in 293T or H460 cells; order of the parts as in the printed name; also called GFP-HSP70 full; not shown: GFP
T3 sequence (P0DMV8 whole entry): as the sequence (P0DMV8 whole entry) above
Method: After EGF treatment, the cells were washed 3 times with cold PBS, and were fixed with cold methanol for 10 minutes. After fixation, the cells were washed 3 times with cold PBS, and nuclei were stained with DAPI (Invitrogen) solution. After staining, each fluorescence was observed using confocal microscopy.

HSPA2 = target: T4, HSPA2 (UniProt P54652 1-639); assay: strep-tag column pull-down from 293T lysate, LC-mass spectrometry
T4 construct: Identified by mass spectrometry of tryptic peptides
T4 sequence (P54652 whole entry): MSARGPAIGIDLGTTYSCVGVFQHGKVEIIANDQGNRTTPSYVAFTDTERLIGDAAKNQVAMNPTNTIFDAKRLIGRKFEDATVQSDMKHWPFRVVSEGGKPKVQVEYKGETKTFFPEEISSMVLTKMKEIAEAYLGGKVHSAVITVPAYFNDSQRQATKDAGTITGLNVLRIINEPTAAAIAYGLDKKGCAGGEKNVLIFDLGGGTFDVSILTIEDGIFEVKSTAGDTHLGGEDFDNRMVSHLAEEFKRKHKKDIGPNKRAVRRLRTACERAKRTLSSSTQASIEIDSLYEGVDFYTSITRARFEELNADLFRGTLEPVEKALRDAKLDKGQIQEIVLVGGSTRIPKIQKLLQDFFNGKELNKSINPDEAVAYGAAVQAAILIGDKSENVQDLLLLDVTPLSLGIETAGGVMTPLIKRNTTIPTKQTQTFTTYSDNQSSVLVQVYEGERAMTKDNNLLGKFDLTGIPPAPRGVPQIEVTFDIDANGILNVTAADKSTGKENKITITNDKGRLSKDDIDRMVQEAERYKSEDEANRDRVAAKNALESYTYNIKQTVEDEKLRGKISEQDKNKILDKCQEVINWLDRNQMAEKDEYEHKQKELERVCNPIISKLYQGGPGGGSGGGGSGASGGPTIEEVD
Method: as §1, §2

HSPA9 = target: T5, HSPA9 (UniProt P38646 47-679); assay: as above
T5 construct: Identified by mass spectrometry of tryptic peptides
T5 sequence (P38646 47-679 limits assumed): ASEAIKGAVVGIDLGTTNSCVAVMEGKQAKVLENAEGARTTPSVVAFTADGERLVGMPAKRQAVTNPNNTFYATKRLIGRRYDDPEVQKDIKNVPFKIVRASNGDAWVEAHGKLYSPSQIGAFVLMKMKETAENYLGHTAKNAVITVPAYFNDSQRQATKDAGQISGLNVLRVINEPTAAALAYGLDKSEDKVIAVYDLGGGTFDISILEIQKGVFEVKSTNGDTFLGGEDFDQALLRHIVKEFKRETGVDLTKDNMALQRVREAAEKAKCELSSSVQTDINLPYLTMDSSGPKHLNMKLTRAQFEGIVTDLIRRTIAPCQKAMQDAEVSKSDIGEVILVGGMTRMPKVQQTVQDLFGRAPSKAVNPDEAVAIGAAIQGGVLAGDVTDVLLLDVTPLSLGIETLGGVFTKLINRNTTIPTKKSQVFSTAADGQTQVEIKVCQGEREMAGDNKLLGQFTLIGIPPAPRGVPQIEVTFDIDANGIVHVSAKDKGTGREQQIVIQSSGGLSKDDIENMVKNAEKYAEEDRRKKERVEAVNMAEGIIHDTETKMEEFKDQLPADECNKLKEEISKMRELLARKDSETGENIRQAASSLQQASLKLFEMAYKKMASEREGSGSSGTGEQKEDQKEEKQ
Method: as §1, §2

HSPA1L = target: T6, HSPA1L (UniProt P34931 1-641); assay: as above
T6 construct: Identified by mass spectrometry of tryptic peptides
T6 sequence (P34931 whole entry): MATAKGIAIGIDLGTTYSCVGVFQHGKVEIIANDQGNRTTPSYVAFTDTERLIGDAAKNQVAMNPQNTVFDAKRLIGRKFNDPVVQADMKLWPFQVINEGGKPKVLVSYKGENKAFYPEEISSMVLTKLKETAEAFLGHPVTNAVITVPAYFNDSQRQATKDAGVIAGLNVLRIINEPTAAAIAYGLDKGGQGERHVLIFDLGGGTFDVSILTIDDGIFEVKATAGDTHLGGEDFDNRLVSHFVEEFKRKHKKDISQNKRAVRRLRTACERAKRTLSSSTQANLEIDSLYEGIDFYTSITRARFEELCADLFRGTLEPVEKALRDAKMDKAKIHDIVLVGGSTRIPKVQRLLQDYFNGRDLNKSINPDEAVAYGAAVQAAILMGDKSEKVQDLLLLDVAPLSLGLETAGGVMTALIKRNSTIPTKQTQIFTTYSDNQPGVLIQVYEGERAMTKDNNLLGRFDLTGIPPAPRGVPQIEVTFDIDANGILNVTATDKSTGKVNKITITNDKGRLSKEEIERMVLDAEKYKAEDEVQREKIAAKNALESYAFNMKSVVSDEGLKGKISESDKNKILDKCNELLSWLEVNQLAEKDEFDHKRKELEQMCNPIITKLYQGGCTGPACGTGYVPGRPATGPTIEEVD
Method: as §1, §2

HSPA5 = target: T7, HSPA5 (UniProt P11021 19-654); assay: as above
T7 construct: Identified by mass spectrometry of tryptic peptides
T7 sequence (P11021 19-654 limits assumed): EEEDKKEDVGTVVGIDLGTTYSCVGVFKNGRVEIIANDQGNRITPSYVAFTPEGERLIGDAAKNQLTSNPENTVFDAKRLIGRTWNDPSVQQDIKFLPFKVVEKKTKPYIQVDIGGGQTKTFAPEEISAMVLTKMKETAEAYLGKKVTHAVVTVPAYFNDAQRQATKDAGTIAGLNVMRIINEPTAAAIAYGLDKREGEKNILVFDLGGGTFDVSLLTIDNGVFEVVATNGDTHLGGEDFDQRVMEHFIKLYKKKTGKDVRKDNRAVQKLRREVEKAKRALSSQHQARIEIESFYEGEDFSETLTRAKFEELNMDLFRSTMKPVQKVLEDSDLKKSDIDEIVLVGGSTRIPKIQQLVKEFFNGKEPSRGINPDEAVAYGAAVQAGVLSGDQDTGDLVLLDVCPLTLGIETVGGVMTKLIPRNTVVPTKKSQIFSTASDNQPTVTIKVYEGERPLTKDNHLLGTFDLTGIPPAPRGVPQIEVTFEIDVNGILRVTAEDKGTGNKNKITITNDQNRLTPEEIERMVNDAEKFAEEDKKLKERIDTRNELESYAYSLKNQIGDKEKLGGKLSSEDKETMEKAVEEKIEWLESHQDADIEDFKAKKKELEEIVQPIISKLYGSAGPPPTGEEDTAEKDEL
Method: as §1, §2

B1: AIMP2-DX2 protein (other)
chain: MPMYQVKPYHGGGAPLRVELPTCMYRLPNVHGRSYGPAPGAGHVQDYGALKDIVINANPASPPLSLLVLHRLLCEHFRVLSTVHTHSSVKSVPENLLKCFGEQNKKQPRQDYQLGFTLIWKNVPKTQMKFSIQTMCPIEGEGNIARFLFSLFGQKHNAVNATLIDSWVDIAIFQLKEGSSKEKAAVFRSMNSALGKSPWLAGNELTVADVVLWSVLQQIGGCSVTVPANVQRWMRSCENLAPFNTALKLLK
notes: Untagged AIMP2-DX2: endogenous in H460 cells (IP with Hsp70 antibody) and the purified protein flowed in SPR
B1: binds (HSP70 protein [1]).

B2: Strep-AIMP2-DX2 (other)
chain: B1 chain
notes: Overexpressed in 293T cells; The tag is put first as in the printed name; also called Strep-DX2; exogenous AIMP2-DX2; not shown: Strep tag from the pEXPR-IBA5 vector
B2: no binding (HSP90B1); binds (HSP70 protein [2]).

B3: RFP-AIMP2-DX2 (other)
chain: B1 chain
notes: Overexpressed in 293T cells; order of the parts as in the printed name; not shown: RFP
B3: binds (GFP-HSP70).

B4: AIMP2 (other, UniProt Q13155 1-320, looked up)
chain: MPMYQVKPYHGGGAPLRVELPTCMYRLPNVHGRSYGPAPGAGHVQEESNLSLQALESRQDDILKRLYELKAAVDGLSKMIQTPDADLDVTNIIQADEPTTLTTNALDLNSVLGKDYGALKDIVINANPASPPLSLLVLHRLLCEHFRVLSTVHTHSSVKSVPENLLKCFGEQNKKQPRQDYQLGFTLIWKNVPKTQMKFSIQTMCPIEGEGNIARFLFSLFGQKHNAVNATLIDSWVDIAIFQLKEGSSKEKAAVFRSMNSALGKSPWLAGNELTVADVVLWSVLQQIGGCSVTVPANVQRWMRSCENLAPFNTALKLLK
notes: Endogenous protein in H460 cell lysate; also called p38/JTV-1
B4: no binding (HSP70 protein [1]).

B5: strep-AIMP2 (other, UniProt Q13155 1-320, looked up)
chain: B4 chain
notes: Overexpressed in 293T cells; not shown: Strep tag from the pEXPR-IBA5 vector
B5: no binding (HSPA2); no binding (HSPA9); no binding (HSPA1L). B5: no binding (HSPA5).
